For the experiment, the target named is 轮状病毒重组蛋白VP8 (recombinant rotavirus VP8, part of the spike protein VP4) (轮状病毒 (rotavirus; strain not stated)). Kind of experiment: ELISA, antigen coated at 10 μg/mL, Rot1 in 2-fold dilutions from 10 μg/mL (16 points), anti-His detection, OD450.

B1: 纳米抗体Rot1 (nanobody Rot1, fusion protein with C-terminal histidine tag and human influenza hemaggluti (VHH)
VHH: QVQLQESGGGLVQAGGSLRLSCTASGYRFSNLAVGWFRQAPGQEREAVAVIFVGGITYYADSVKGRFTISRDNAKNTVTLQMNNLKPEDTAIYYCAAYVHMYCASQTITRYDYWGQGTQVTVSS
Regarding B1, the EC50 amounted to 0.195 µg/mL.

For orientation: EC50 means the concentration that produces a half-maximal response.
